From the Immune Epitope Database (IEDB)

Key:
HLA-B*07:02 [1] = assay: IEDB peptide-MHC binding, purified MHC/competitive/radioactivity; filed as Kd, often an IC50 or EC50 that approximates it; ≥ and ≤ were set here for values at or beyond the usual limits of such assays
HLA-B*51:01 = assay: as above
HLA-B*35:01 = assay: as above
HLA-B*53:01 = assay: as above
HLA-B*40:01 = assay: IEDB peptide-MHC binding, purified MHC/direct/fluorescence; filed as Kd, often an IC50 or EC50 that approximates it; ≥ and ≤ were set here for values at or beyond the usual limits of such assays; conditions: source organism: Corynebacterium diphtheriae
HLA-A*69:01 = assay: as above
HLA-A*30:01 = assay: IEDB peptide-MHC binding, purified MHC/competitive/radioactivity; filed as Kd, often an IC50 or EC50 that approximates it; ≥ and ≤ were set here for values at or beyond the usual limits of such assays
HLA-A*02:01 [2] = assay: IEDB peptide-MHC binding, purified MHC/competitive/fluorescence; ≥ and ≤ were set here for values at or beyond the usual limits of such assays
HLA-A*01:01 [3] = assay: IEDB peptide-MHC binding, purified MHC/competitive/radioactivity; filed as Kd, often an IC50 or EC50 that approximates it; ≥ and ≤ were set here for values at or beyond the usual limits of such assays
HLA-A*02:01 [4] = assay: IEDB peptide-MHC binding, purified MHC/direct/fluorescence; filed as Kd, often an IC50 or EC50 that approximates it; ≥ and ≤ were set here for values at or beyond the usual limits of such assays
HLA-A*03:01 = assay: as above
HLA-B*15:01 = assay: as above
HLA-A*01:01 [5] = assay: as above
HLA-A*11:01 = assay: as above
HLA-A*26:01 = assay: IEDB peptide-MHC binding, purified MHC/competitive/radioactivity; filed as Kd, often an IC50 or EC50 that approximates it; ≥ and ≤ were set here for values at or beyond the usual limits of such assays
HLA-B*07:02 [6] = assay: IEDB peptide-MHC binding, purified MHC/direct/fluorescence; filed as Kd, often an IC50 or EC50 that approximates it; ≥ and ≤ were set here for values at or beyond the usual limits of such assays; conditions: source organism: Vibrio cholerae
[7] = source organism: Dengue virus 1 Brazil/97-11/1997
[8] = source organism: Dengue virus 4 Dominica/814669/1981
[9] = source organism: Dengue virus 4 Philippines/H241/1956
[10] = source organism: Sudan ebolavirus
[11] = source organism: Vibrio vulnificus
[12] = source organism: Dengue virus 3 Martinique/1243/1999
[13] = source organism: West Nile virus
[14] = source organism: Francisella tularensis subsp. holarctica LVS
[15] = source organism: Zaire ebolavirus
[16] = source organism: Vibrio cholerae

IPKIYGGPIS
Kd (HLA-B*07:02 [1]; source organism: Dengue virus 1 Singapore/S275/1990): 508 nM

LPVLLGSFGC
Kd (HLA-B*51:01; [7]): ≥ 43500 nM | Kd (HLA-B*35:01; [7]): 5940 nM | Kd (HLA-B*53:01; [7]): 117 nM

LPLPWTAGAD
Kd (HLA-B*51:01; [8]): ≥ 69600 nM | Kd (HLA-B*35:01; [8]): 8060 nM

LEEEGVTPL
Kd (HLA-B*40:01): 43.4 nM

VAEIQPQWI
Kd (HLA-B*51:01; [9]): ≥ 20900 nM

DLNKVIQFL
Kd (HLA-A*69:01; source organism: Haemophilus influenzae): 352 nM

KTSFHIIFL
Kd (HLA-A*30:01; source organism: Vaccinia virus WR): 25 nM

QLANETTQA
IC50 (HLA-A*02:01 [2]; [10]): 25900 nM

FLGGNEVGKTY
Kd (HLA-A*01:01 [3]; source organism: Homo sapiens): 198 nM

SAWESFWRI
Kd (HLA-A*69:01; [11]): 1.4 nM | Kd (HLA-A*02:01 [4]; [11]): 12.8 nM

VPMAGPLVA
Kd (HLA-B*07:02 [1]; [12]): 56 nM

VSWKPWSSK
Kd (HLA-A*03:01; source organism: Cryptosporidium parvum): 50.7 nM

YQTDSGCWY
Kd (HLA-B*15:01; [13]): 1340 nM | Kd (HLA-A*01:01 [5]; [13]): 6060 nM

RIYCQENPY
Kd (HLA-A*03:01; [14]): 91.7 nM | Kd (HLA-A*11:01; [14]): 26.3 nM

EYVDYMPVM
Kd (HLA-A*26:01; [9]): ≥ 21300 nM

FLPKAAYAL
Kd (HLA-A*02:01 [4]; source organism: Mammarenavirus juninense): 2.8 nM

CIDILRSLE
IC50 (HLA-A*02:01 [2]; source organism: Vaccinia virus): 51000 nM

LGVATAHGS
IC50 (HLA-A*02:01 [2]; [15]): ≥ 277000 nM

QLQCHQIAI
Kd (HLA-B*15:01; [16]): 7260 nM | Kd (HLA-B*07:02 [6]): 6710 nM | Kd (HLA-A*69:01; [16]): 5310 nM | Kd (HLA-A*03:01; [16]): 13200 nM | Kd (HLA-A*02:01 [4]; [16]): 92 nM

LEKVQRQIQ
IC50 (HLA-A*02:01 [2]; [15]): ≥ 446000 nM

EFLDYMPSM
Kd (HLA-A*26:01; [12]): 16200 nM

SVTRLENLMW
Kd (HLA-B*53:01; source organism: Dengue virus 2 Jamaica/1409/1983): 437 nM

NSALTLHWF
Kd (HLA-A*01:01 [3]; [8]): 2320 nM

SPGYVLGVFL
Kd (HLA-B*07:02 [1]; [8]): 238 nM

WTLDANINA
IC50 (HLA-A*02:01 [2]; [10]): 3850 nM

GMNAPDDLV
IC50 (HLA-A*02:01 [2]; [15]): 6300 nM

CSDDGFWSK
Kd (HLA-A*03:01; source organism: Homo sapiens): 11000 nM | Kd (HLA-A*11:01; source organism: Homo sapiens): 138 nM | Kd (HLA-A*01:01 [5]; source organism: Homo sapiens): 423 nM

ITFLRVLSIP
Kd (HLA-A*30:01; [9]): 828 nM
